Measurements taken from patent US20230357429A1 (JANUX THERAPEUTICS, published 2023).
Where no end group is shown, it is not given here.

Key:
[1] = molecular target: T1, Human TROP2 ECD (31-274 AA), biotinylated (human, UniProt P09758 31-274, biotinylated (site not stated)); experiment: ELISA on immobilized TROP2
T1 construct: also called tumor-associated calcium signal transducer 2; Human TROP2-biotin
T1 sequence: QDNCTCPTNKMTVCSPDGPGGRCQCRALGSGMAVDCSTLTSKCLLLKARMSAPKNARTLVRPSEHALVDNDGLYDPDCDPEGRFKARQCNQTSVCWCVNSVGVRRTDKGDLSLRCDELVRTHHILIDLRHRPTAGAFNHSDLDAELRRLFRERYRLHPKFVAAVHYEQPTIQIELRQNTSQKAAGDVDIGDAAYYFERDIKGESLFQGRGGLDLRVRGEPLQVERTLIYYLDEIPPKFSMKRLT

[2] = molecular target: T1, Human TROP2 ECD (31-274 AA), …; experiment: ELISA on immobilized TROP2; remark: listed apart in the source
Human TROP2 Full length = molecular target: T2, Human TROP2 Full length (human, UniProt P09758 31-323); experiment: cell-based or functional assay
T2 sequence: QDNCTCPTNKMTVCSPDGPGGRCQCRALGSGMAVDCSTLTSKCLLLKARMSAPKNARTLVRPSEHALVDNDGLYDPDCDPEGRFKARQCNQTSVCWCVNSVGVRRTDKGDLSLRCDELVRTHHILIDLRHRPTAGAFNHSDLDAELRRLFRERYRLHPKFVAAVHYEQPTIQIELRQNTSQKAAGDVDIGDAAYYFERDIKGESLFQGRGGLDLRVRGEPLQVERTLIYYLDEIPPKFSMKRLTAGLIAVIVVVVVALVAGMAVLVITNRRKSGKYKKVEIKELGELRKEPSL

[3] = molecular target: T1, Human TROP2 ECD (31-274 AA), …; experiment: ELISA: biotinylated TROP2 captured on neutravidin plate, Fab titrated, HRP secondary antibody
[4] = molecular target: T1, Human TROP2 ECD (31-274 AA), …; experiment: ELISA, biotinylated TROP2 ECD on neutravidin plate, Fab titrated
[5] = molecular target: T1, Human TROP2 ECD (31-274 AA), …; experiment: ELISA, ratio of EC50 to that of TBD-1 wt
Peptide-77 = molecular target: T3, Peptide-77 (cysteine pairing not given here; also: biotinylated, site not given here); experiment: ELISA, TCE on captured biotin-peptide
T3 construct: mask peptide for the CD3 scFv
T3 peptide: YLCGPDTDETLACY

Peptide-70 = molecular target: T4, Peptide-70 (cysteine pairing not given here; also: biotinylated, site not given here); experiment: ELISA, TCE on captured biotin-peptide
T4 construct: mask peptide for the CD3 scFv
T4 peptide: YLCGPDGDETLACY

Peptide-76 = molecular target: T5, Peptide-76 (cysteine pairing not given here; also: biotinylated, site not given here); experiment: ELISA, TCE on captured biotin-peptide
T5 construct: mask peptide for the CD3 scFv
T5 peptide: YLCGPDADETLACY

TBD-1 wt = molecular target: T6, TBD-1 wt; experiment: competition ELISA: peptide titrated and pre-incubated with a constant concentration of TBD-1, then added to plate-bound biotinylated TROP2; blocked ligand TROP2 (2.m7)
T6 construct: Fab; the heavy chain entry is VH-CH1; also called wild-type anti-TROP2 Fab (hRS7); TROP2 Fab

B1: PC-6 (bispecific antibody)
light: GGVDFCGLYHWPICYQGGGGSGGLSGRSDAGSPLGLAGSGGSDIQLTQSPSSLSASVGDRVSITCKASQDVSIAVAWYQQKPGKAPKLLIYSASYRYTGVPDRFSGSGSGTDFTLTISSLQPEDFAVYYCQQHYITPLTFGAGTKVEIKRTVAAPSVFIFPPSDEQLKSGTASVVCLLNNFYPREAKVQWKVDNALQSGNSQESVTEQDSKDSTYSLSSTLTLSKADYEKHKVYACEVTHQGLSSPVTKSFNRGEC
heavy: not shown
notes: anti-TROP2 wt
For B1, which EC50 [1] is on record?
The EC50 was 16.6 nM.

And the EC50 [2]?
Its EC50 is 32.9 nM.

B2: PC-5 (bispecific antibody)
light: GGIDFCMLYNWPICAGGGGGSGGLSGRSDAGSPLGLAGSGGSDIQLTQSPSSLSASVGDRVSITCKASQDVSIAVAWYQQKPGKAPKLLIYSASYRYTGVPDRFSGSGSGTDFTLTISSLQPEDFAVYYCQQHYITPLTFGAGTKVEIKRTVAAPSVFIFPPSDEQLKSGTASVVCLLNNFYPREAKVQWKVDNALQSGNSQESVTEQDSKDSTYSLSSTLTLSKADYEKHKVYACEVTHQGLSSPVTKSFNRGEC
heavy: not shown
notes: anti-TROP2 wt
How did the EC50 [1] turn out when B2 was run?
The EC50 was 9.15 nM.

What about the EC50 [2] of the same binder?
The EC50 was 24.5 nM.

B3: PC-29 (bispecific antibody)
light: GGVDFCGLYHWPICYQGGGGSGGLSGRSDAGSPLGLAGSGGSDIQLTQSPSSLSASVGDRVSITCKASQDVSIAVAWYQQKPGKAPKLLIYSASYRYTGVPDRFSGSGSGTDFTLTISSLQPEDFAVYYCQQHYITPLTFGAGTKVEIKRTVAAPSVFIFPPSDEQLKSGTASVVCLLNNFYPREAKVQWKVDNALQSGNSQESVTEQDSKDSTYSLSSTLTLSKADYEKHKVYACEVTHQGLSSPVTKSFNRGEC
heavy: not shown
notes: anti-TROP2 wt
Which EC50 [1] does the source give for B3 here?
The EC50 was 16.3 nM.

B4: TCE-39 (bispecific antibody)
light: DIQLTQSPSSLSASVGDRVSITCKASQDVSIAVAWYQQKPGKAPKLLIYSASYRYTGVPDRFSGSGSGTDFTLTISSLQPEDFAVYYCQQHYITPLTFGAGTKVEIKRTVAAPSVFIFPPSDEQLKSGTASVVCLLNNFYPREAKVQWKVDNALQSGNSQESVTEQDSKDSTYSLSSTLTLSKADYEKHKVYACEVTHQGLSSPVTKSFNRGEC
heavy: EVQLVESGGGLVQPGGSLKLSCAASGFTFNKYAMNWVRQASGKGLEWVGRIRSKYNNYATYYADSVKDRFTISRDDSKNTAYLQMNSLKTEDTAVYYCVRHGNFGNSYISYWAYWGQGTLVTVSSGGGGSGGGGSGGGGSQTVVTQEPSFSVSPGGTVTLTCRSSTGAVTSGNYANWVQQTPGQAPRGLIGGTKFLAPGVPDRFSGSILGNKAALTITGAQADDESDYYCVLWYSNRWVFGGGTKLTVLGGGGSQVQLQQSGSELKKPGASVKVSCKASGYTFTNYGMNWVKQAPGQGLKWMGWINTYTGEPTYTDDFKGRFAFSLDTSVSTAYLQISSLKADDTAVYFCARGGFGSSYWYADVWGQGSLVTVSSASTKGPSVFPLAPSSKSTSGGTAALGCLVKDYFPEPVTVSWNSGALTSGVHTFPAVLQSSGLYSLSSVVTVPSSSLGTQTYICNVNHKPSNTKVDKKVEPKSC
B4 was tested. Which “HCT116 Cytotoxicity EC50 (pM)” value (Human TROP2 Full length) did it give?
Its value is 73.2 pM.

B5: TCE-49 (bispecific antibody)
light: DIQLTQSPSSLSASVGDRVSITCKASQDVSIAVAWYQQKPGKAPKLLIYSASYRYTGVPDRFSGSGSGTDFTLTISSLQPEDFAVYYCQQHYITPLTFGAGTKVEIKRTVAAPSVFIFPPSDEQLKSGTASVVCLLNNFYPREAKVQWKVDNALQSGNSQESVTEQDSKDSTYSLSSTLTLSKADYEKHKVYACEVTHQGLSSPVTKSFNRGEC
heavy: not shown
How did the “H292 Cytotoxicity EC50 (pM)” value (Human TROP2 Full length) turn out when B5 was run?
The value was 3.9 pM.

B6: TCE-2 (bispecific antibody)
light: not shown
heavy: QVQLQQSGSELKKPGASVKVSCKASGYTFTNYGMNWVKQAPGQGLKWMGWINTYTGEPTYTDDFKGRFAFSLDTSVSTAYLQISSLKADDTAVYFCARGGFGSSYWYFDVWGQGSLVTVSSASTKGPSVFPLAPSSKSTSGGTAALGCLVKDYFPEPVTVSWNSGALTSGVHTFPAVLQSSGLYSLSSVVTVPSSSLGTQTYICNVNHKPSNTKVDKKVEPKSC
How did the EC50 [2] turn out when B6 was run?
The EC50 was 0.13 nM.

B7: PC-7 (bispecific antibody)
light: not shown
heavy: GGVDFCGLYHWPICYQGGGGSGGLSGRSDAGSPLGLAGSGGSQVQLQQSGSELKKPGASVKVSCKASGYTFTNYGMNWVKQAPGQGLKWMGWINTYTGEPTYTDDFKGRFAFSLDTSVSTAYLQISSLKADDTAVYFCARGGFGSSYWYFDVWGQGSLVTVSSASTKGPSVFPLAPSSKSTSGGTAALGCLVKDYFPEPVTVSWNSGALTSGVHTFPAVLQSSGLYSLSSVVTVPSSSLGTQTYICNVNHKPSNTKVDKKVEPKSC
notes: anti-TROP2 wt
Which EC50 [2] does the source give for B7 here?
Its EC50 is 24.6 nM.

B8: PC-28 (bispecific antibody)
light: GGIDFCMLYNWPICAGGGGGSGGLSGRSDAGSPLGLAGSGGSDIQLTQSPSSLSASVGDRVSITCKASQDVSIAVAWYQQKPGKAPKLLIYSASYRYTGVPDRFSGSGSGTDFTLTISSLQPEDFAVYYCQQHYITPLTFGAGTKVEIKRTVAAPSVFIFPPSDEQLKSGTASVVCLLNNFYPREAKVQWKVDNALQSGNSQESVTEQDSKDSTYSLSSTLTLSKADYEKHKVYACEVTHQGLSSPVTKSFNRGEC
heavy: not shown
notes: anti-TROP2 wt
Which EC50 [1] does the source give for B8 here?
The EC50 was 25 nM.

B9: TBD-18 (anti-TROP2 Fab, HC Y105A) (Fab, V domains shown)
VH: QVQLQQSGSELKKPGASVKVSCKASGYTFTNYGMNWVKQAPGQGLKWMGWINTYTGEPTYTDDFKGRFAFSLDTSVSTAYLQISSLKADDTAVYFCARGGFGSSAWYFDVWGQGSLVTVSS
VL: DIQLTQSPSSLSASVGDRVSITCKASQDVSIAVAWYQQKPGKAPKLLIYSASYRYTGVPDRFSGSGSGTDFTLTISSLQPEDFAVYYCQQHYITPLTFGAGTKVEIKR
Which results are given for B9?
EC50 [3]: 801 nM; EC50 [4]: 801 nM; Fold shift in EC50 relative to wt [5]: 4000 fold

B10: TCE-37 (anti-CD3 scFv F104A; anti-TROP2 F108A) (bispecific antibody)
light: DIQLTQSPSSLSASVGDRVSITCKASQDVSIAVAWYQQKPGKAPKLLIYSASYRYTGVPDRFSGSGSGTDFTLTISSLQPEDFAVYYCQQHYITPLTFGAGTKVEIKRTVAAPSVFIFPPSDEQLKSGTASVVCLLNNFYPREAKVQWKVDNALQSGNSQESVTEQDSKDSTYSLSSTLTLSKADYEKHKVYACEVTHQGLSSPVTKSFNRGEC
heavy: not shown
notes: scFv on the Fab heavy chain
How did the EC50 (Peptide-77) turn out when B10 was run?
The EC50 was 9.21 nM.

And the EC50 (Peptide-70)?
The EC50 was 0.34 nM.

And the EC50 (Peptide-76)?
Its EC50 is 1.44 nM.

B11: Peptide-16 (peptide)
peptide: IDFCLLYDWPVCAS
Which “IC50 (read off the curve)” value (TBD-1 wt) does the source give for B11 here?
The value was ~3000 nM.

B12: Peptide-19 (peptide)
peptide: PDFCQLYNWPVCAG
Does B12 bind (TBD-1 wt)?
Result: binds

B13: Peptide-21 (peptide)
peptide: IDFCSLYQWPVCGT
Does B13 bind (TBD-1 wt)?
Result: binds

B14: Peptide-22 (peptide)
peptide: VDFCTIYKWPVCEG
Does B14 bind (TBD-1 wt)?
Result: binds

B15: Peptide-23 (peptide)
peptide: VDFCYQYGWPICSR
Does B15 bind (TBD-1 wt)?
Result: binds

B16: TCE-7 (anti-CD3 scFv wt; anti-TROP2 F108A) (bispecific antibody)
light: DIQLTQSPSSLSASVGDRVSITCKASQDVSIAVAWYQQKPGKAPKLLIYSASYRYTGVPDRFSGSGSGTDFTLTISSLQPEDFAVYYCQQHYITPLTFGAGTKVEIKRTVAAPSVFIFPPSDEQLKSGTASVVCLLNNFYPREAKVQWKVDNALQSGNSQESVTEQDSKDSTYSLSSTLTLSKADYEKHKVYACEVTHQGLSSPVTKSFNRGEC
heavy: not shown
notes: scFv on the Fab heavy chain
Which EC50 (Peptide-77) does the source give for B16 here?
Its EC50 is 63.2 nM.

What about the EC50 (Peptide-70) of the same binder?
The EC50 was 0.4 nM.

What about the EC50 (Peptide-76) of the same binder?
Its EC50 is 4.56 nM.
